Reference: patent US20070141052A1

Tests used:
[1] = molecular target: biotin-labeled soluble FcRn; experiment: ELISA: biotinylated soluble FcRn on NeutrAvidin plate, IgG supernatant at pH 6.0, anti-human Fab-HRP detection; details: scale: % of wild type
[2] = molecular target: biotin-labeled soluble FcRn; experiment: ELISA: biotinylated soluble FcRn on NeutrAvidin plate, IgG supernatant at neutral pH, anti-human Fab-HRP detection; details: scale: % of wild type
[3] = molecular target: soluble human FcγRIII (human) (UniProt P08637); experiment: antigen-capture ELISA: IgG captured on PSA-coated plate, biotinylated soluble human FcγR, NeutrAvidin-AP; background-subtracted, normalized to parent
Chain of UniProt P08637 (P08637 17-208): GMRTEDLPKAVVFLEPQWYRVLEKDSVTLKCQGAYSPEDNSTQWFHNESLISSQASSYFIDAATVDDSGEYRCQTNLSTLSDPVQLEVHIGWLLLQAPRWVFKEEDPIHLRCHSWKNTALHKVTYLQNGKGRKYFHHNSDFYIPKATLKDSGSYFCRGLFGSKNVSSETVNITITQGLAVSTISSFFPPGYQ

[4] = molecular target: soluble human FcγRIIb (human) (UniProt P31994); experiment: as above
Chain of UniProt P31994 (P31994 43-217): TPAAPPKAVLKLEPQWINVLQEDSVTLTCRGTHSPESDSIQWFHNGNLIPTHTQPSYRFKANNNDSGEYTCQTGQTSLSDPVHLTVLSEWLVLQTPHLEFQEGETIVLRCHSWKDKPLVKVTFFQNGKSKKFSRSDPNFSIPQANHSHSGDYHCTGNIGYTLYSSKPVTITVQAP

[5] = molecular target: soluble human FcγRIIa (human) (UniProt P12318); experiment: as above
Chain of UniProt P12318 (P12318 34-217): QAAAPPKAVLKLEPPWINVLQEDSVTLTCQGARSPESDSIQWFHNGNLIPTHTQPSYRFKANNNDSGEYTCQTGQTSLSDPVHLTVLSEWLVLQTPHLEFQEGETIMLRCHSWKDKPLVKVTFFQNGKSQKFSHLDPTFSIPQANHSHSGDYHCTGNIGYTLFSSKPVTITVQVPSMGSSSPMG

[6] = molecular target: soluble human FcγRIII (human) (UniProt P08637); experiment: antigen-capture ELISA as for Tables 3-5 but with an anti-TNFα parent IgG; biotinylated soluble human FcγR; normalized to parent
[7] = molecular target: soluble human FcγRIIb (human) (UniProt P31994); experiment: as above

Row | FcRn 6.0 [1] | FcRn 7.0 [2] | relative FcγRIII (relative to parental antibody (=1.0)) [3] | relative FcγRIIb (relative to parental antibody (=1.0)) [4] | Substance | other results
1 | 71 | 51 |  |  | anti-CD20 IgG Fc variant D280A (antibody) | 
2 | 91 | 90 |  |  | anti-CD20 IgG Fc variant D280H (antibody) | 
3 | 145 | 131 |  |  | anti-CD20 IgG Fc variant D280K (antibody) | 
4 | 93 | 61 |  |  | anti-CD20 IgG Fc variant D280N (antibody) | 
5 | 82 | 23 |  |  | anti-CD20 IgG Fc variant D280T (antibody) | 
6 | 154 | 25 |  |  | anti-CD20 IgG Fc variant K290D (antibody) | 
7 | 130 | 17 |  |  | anti-CD20 IgG Fc variant K290N (antibody) | 
8 | 146 | 34 |  |  | anti-CD20 IgG Fc variant K290P (antibody) | 
9 | 148 | 8 |  |  | anti-CD20 IgG Fc variant K290T (antibody) | 
10 | 149 | 73 |  |  | anti-CD20 IgG Fc variant K290V (antibody) | 
11 |  |  | 1.14 | 0.672 | anti-PSA IgG Fc variant E294N (antibody) | 
12 |  |  | 1.47 | 0.892 | anti-PSA IgG Fc variant Q295K (antibody) | 
13 |  |  | 1.06 | 1.34 | anti-PSA IgG Fc variant Q295L (antibody) | relative FcγRIIa (relative to parental antibody (=1.0)) [5]: 1.44
14 |  |  | 2.31 | 0.188 | anti-PSA IgG Fc variant S298D (antibody) | 
15 |  |  | 1.42 | 0.363 | anti-PSA IgG Fc variant S298N (antibody) | 
16 |  |  | 2.8 | 0.592 | anti-PSA IgG Fc variant S298V (antibody) | 
17 |  |  | 1.38 | 1.26 | anti-PSA IgG Fc variant Y300I (antibody) | 
18 |  |  | 1.81 | 1.36 | anti-PSA IgG Fc variant Y300L (antibody) | 
19 |  |  |  |  | anti-TNFα IgG Fc variant D280H (antibody) | relative FcγRIII (relative to parental antibody (=1.0)) [6]: 1.24; relative FcγRIIb (relative to parental antibody (=1.0)) [7]: 0.92
20 |  |  |  |  | anti-TNFα IgG Fc variant D280Q (antibody) | relative FcγRIII (relative to parental antibody (=1.0)) [6]: 1.19; relative FcγRIIb (relative to parental antibody (=1.0)) [7]: 0.87
21 |  |  |  |  | anti-TNFα IgG Fc variant D280Y (antibody) | relative FcγRIII (relative to parental antibody (=1.0)) [6]: 1.23; relative FcγRIIb (relative to parental antibody (=1.0)) [7]: 2.14
22 |  |  |  |  | anti-TNFα IgG Fc variant K290G (antibody) | relative FcγRIII (relative to parental antibody (=1.0)) [6]: 1.64; relative FcγRIIb (relative to parental antibody (=1.0)) [7]: 1.46
23 |  |  |  |  | anti-TNFα IgG Fc variant K290S (antibody) | relative FcγRIII (relative to parental antibody (=1.0)) [6]: 1.23; relative FcγRIIb (relative to parental antibody (=1.0)) [7]: 1.4
